Read-outs that look alike come from different tables or passages of the source.

The target of data set [1] is T1, YY1 (Yin Yang 1) (human, UniProt P25490 1-414). Description: EMSA.
The target in data set [2] is T1, YY1 (Yin Yang 1). The data set is described as follows: EMSA. This is another data set of the same source. Background: In EMSA bound probe runs differently from free probe, usually more slowly.

T1 sequence (P25490 whole entry): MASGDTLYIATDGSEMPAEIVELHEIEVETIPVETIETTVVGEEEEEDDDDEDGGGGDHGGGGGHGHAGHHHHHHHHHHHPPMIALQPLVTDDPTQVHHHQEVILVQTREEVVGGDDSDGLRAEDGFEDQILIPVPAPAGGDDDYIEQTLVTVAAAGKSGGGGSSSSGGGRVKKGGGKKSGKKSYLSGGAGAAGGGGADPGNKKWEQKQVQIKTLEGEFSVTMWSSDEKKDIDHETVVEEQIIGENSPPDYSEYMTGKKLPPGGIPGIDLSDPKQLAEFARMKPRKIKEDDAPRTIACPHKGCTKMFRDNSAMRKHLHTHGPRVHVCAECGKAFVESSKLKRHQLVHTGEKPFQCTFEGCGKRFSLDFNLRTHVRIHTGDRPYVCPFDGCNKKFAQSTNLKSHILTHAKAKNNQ

B1: LEF1 P2 wild-type probe (+13 to +37) (dsDNA)
DNA 1: AAAGCATCCAGATGGAGGCCTCTAC
DNA 2: GTAGAGGCCTCCATCTGGATGCTTT
Regarding B1, the binding result with YY1 (Yin Yang 1) [1] is reported as “binds”.

B2: LEF1 P2 YY1-site mutant probe (ATG to CGT) (dsDNA)
DNA 1: AAAGCATCCAGCGTGAGGCCTCTAC
DNA 2: GTAGAGGCCTCACGCTGGATGCTTT
B2: in the data set with YY1 (Yin Yang 1) [2], the binding result is “no binding”.

Values taken from publication PMC2965227.
